Assay results: the supplement of paper PMC5998384

Columns and labels:
HeLa Kyoto [1] = assay: solubility change mitosis vs G1/S (difference of NP-40 vs SDS log2 ratios) (log2 ratio difference); higher = more soluble in mitosis
HeLa Kyoto [2] = assay: thermal stability score vs G1/S (z-score of summed log2 fold changes over temperatures); higher = more thermally stable than in G1/S
HeLa Kyoto [3] = assay: solubility in G1/S (NP-40 vs SDS abundance) (log2 ratio); higher = more soluble; details: cell cycle stage: G1/S
[4] = cell cycle stage: early G1 (4.5 h after nocodazole release)
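For solubility change mitosis vs G1/S (difference of NP-40 vs SDS log2 ratios) in this document: synchronized HeLa Kyoto cells (double thymidine block for G1/S, nocodazole release for mitosis), protein amounts in NP-40 versus SDS lysates quantified by mass spectrometry, three biological replicates.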
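For solubility in G1/S (NP-40 vs SDS abundance) in this document: HeLa Kyoto cells arrested at G1/S by double thymidine block, proteins quantified by TMT10plex mass spectrometry in mild NP-40 versus SDS extracts, three biological replicates.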
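For thermal stability score vs G1/S (z-score of summed log2 fold changes over temperatures) in this document: synchronized HeLa Kyoto cells, proteins quantified by TMT10plex mass spectrometry, three biological replicates, mitosis taken 0.5 h after nocodazole release, G1/S directly after double thymidine block.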

Row | Sequence | solubility change mitosis (log2) (HeLa Kyoto [1]) | thermal stability score (HeLa Kyoto [2]; [4]) | thermal stability score (HeLa Kyoto [2]; cell cycle stage: mitosis) | solubility in G1/S (log2) (HeLa Kyoto [3])
1 | MAKAAASSSLEDLDLSGEEVQRLTSAFQDPEFRRMFSQYAEELTDPENRRRYEAEITALERERGVEVRFVHPEPGHVLRTSLDGARRCFVNVCSNALVGAPSSRPGSGGDRGAAPGSHWSLPYSLAPGREYAGRSSSRYMVYDVVFHPDALALARRHEGFRQMLDATALEAVEKQFGVKLDRRNAKTLKAKYKGTPEAAVLRTPLPGVIPARPDGEPKGPLPDFPYPYQYPAAPGPRAPSPPEAALQPAPTEPRYSVVQRHHVDLQDYRCSRDSAPSPVPHELVITIELPLLRSAEQAALEVTRKLLCLDSRKPDYRLRLSLPYPVDDGRGKAQFNKARRQLVVTLPVVLPAARREPAVAVAAAAPEESADRSGTDGQACASAREGEAGPARSRAEDGGHDTCVAGAAGSGVTTLGDPEVAPPPAAAGEERVPKPGEQDLSRHAGSPPGSVEEPSPGGENSPGGGGSPCLSSRSLAWGSSAGRESARGDSSVETREESEGTGGQRSACAMGGPGTKSGEPLCPPLLCNQDKETLTLLIQVPRIQPQSLQGDLNPLWYKLRFSAQDLVYSFFLQFAPENKLSTTEPVISISSNNAVIELAKSPESHGHWREWYYGVNNDSLEERLFVNEENVNEFLEEVLSSPFKQSMSLTPPLIEVLQVTDNKIQINAKLQECSNSDQLQGKEERVNEESHLTEKEYIEHCNTPTTDSDSSIAVKALQIDSFGLVTCFQQESLDVSQMILGKSQQPESKMQSEFIKEKSATCSNEEKDNLNESVITEEKETDGDHLSSLLNKTTVHNIPGFDSIKETNMQDGSVQVIKDHVTNCAFSFQNSLLYDLD [DNAAF2] | 0.11 | -0.286 | -0.17 | -0.0763
2 | MALAVLRVLEPFPTETPPLAVLLPPGGPWPAAELGLVLALRPAGESPAGPALLVAALEGPDAGTEEQGPGPPQLLVSRALLRLLALGSGAWVRARAVRRPPALGWALLGTSLGPGLGPRVGPLLVRRGETLPVPGPRVLETRPALQGLLGPGTRLAVTELRGRARLCPESGDSSRPPPPPVVSSFAVSGTVRRLQGVLGGTGDSLGVSRSCLRGLGLFQGEWVWVAQARESSNTSQPHLARVQVLEPRWDLSDRLGPGSGPLGEPLADGLALVPATLAFNLGCDPLEMGELRIQRYLEGSIAPEDKGSCSLLPGPPFARELHIEIVSSPHYSTNGNYDGVLYRHFQIPRVVQEGDVLCVPTIGQVEILEGSPEKLPRWREMFFKVKKTVGEAPDGPASAYLADTTHTSLYMVGSTLSPVPWLPSEESTLWSSLSPPGLEALVSELCAVLKPRLQPGGALLTGTSSVLLRGPPGCGKTTVVAAACSHLGLHLLKVPCSSLCAESSGAVETKLQAIFSRARRCRPAVLLLTAVDLLGRDRDGLGEDARVMAVLRHLLLNEDPLNSCPPLMVVATTSRAQDLPADVQTAFPHELEVPALSEGQRLSILRALTAHLPLGQEVNLAQLARRCAGFVVGDLYALLTHSSRAACTRIKNSGLAGGLTEEDEGELCAAGFPLLAEDFGQALEQLQTAHSQAVGAPKIPSVSWHDVGGLQEVKKEILETIQLPLEHPELLSLGLRRSGLLLHGPPGTGKTLLAKAVATECSLTFLSVKGPELINMYVGQSEENVREVFARARAAAPCIIFFDELDSLAPSRGRSGDSGGVMDRVVSQLLAELDGLHSTQDVFVIGATNRPDLLDPALLRPGRFDKLVFVGANEDRASQLRVLSAITRKFKLEPSVSLVNVLDCCPPQLTGADLYSLCSDAMTAALKRRVHDLEEGLEPGSSALMLTMEDLLQAAARLQPSVSEQELLRYKRIQRKFAAC [PEX6] | -0.158 | -0.844 | -0.711 | 0.167
3 | MALVSADSRIAELLTELHQLIKQTQEERSRSEHNLVNIQKTHERMQTENKISPYYRTKLRGLYTTAKADAEAECNILRKALDKIAEIKSLLEERRIAAKIAGLYNDSEPPRKTMRRGVLMTLLQQSAMTLPLWIGKPGDKPPPLCGAIPASGDYVARPGDKVAARVKAVDGDEQWILAEVVSYSHATNKYEVDDIDEEGKERHTLSRRRVIPLPQWKANPETDPEALFQKEQLVLALYPQTTCFYRALIHAPPQRPQDDYSVLFEDTSYADGYSPPLNVAQRYVVACKEPKKK [SGF29] | 0.314 | -0.0915 | -0.207 | 0.435
4 | MAMQMQLEANADTSVEEESFGPQPISRLEQCGINANDVKKLEEAGFHTVEAVAYAPKKELINIKGISEAKADKILAEAAKLVPMGFTTATEFHQRRSEIIQITTGSKELDKLLQGGIETGSITEMFGEFRTGKTQICHTLAVTCQLPIDRGGGEGKAMYIDTEGTFRPERLLAVAERYGLSGSDVLDNVAYARAFNTDHQTQLLYQASAMMVESRYALLIVDSATALYRTDYSGRGELSARQMHLARFLRMLLRLADEFGVAVVITNQVVAQVDGAAMFAADPKKPIGGNIIAHASTTRLYLRKGRGETRICKIYDSPCLPEAEAMFAINADGVGDAKD [RAD51] | -0.238 | -1.12 | -1.89 | -0.073
